Experimental data taken from article doi:10.1101/2022.11.03.514279 (bioRxiv, 2022).

B1: pVI (f1 phage minor capsid protein) (natural protein, f1 filamentous phage, UniProt P69531 1-112, looked up)
chain: MPVLLGIPLLLRFLGFLLVTLFGYLLTFLKKGFGKIAIAISLFLALIIGLNSILVGYLSDISAQLPSDFVQGVQLILPSNALPCFYVILSVKAAIFIFDVKQKIVSYLDWDK
B2: pVII (f1 phage minor capsid protein) (natural protein, f1 filamentous phage, UniProt P69534 1-33, looked up)
chain: MEQVADFDTIYQAMIQISVVLCFALGIIAGGQR
B3: pIX (f1 phage minor capsid protein) (natural protein, f1 filamentous phage, UniProt P69537 1-32, looked up)
chain: MSVLVYSFASFVLGWCLRSGITYFTRLMETSS

Tests used:
cryo-EM structure = biological target: the molecule itself; test: cryo-EM structure
[1] = biological target: B2; test: cryo-EM structure

Row | Binder | stoichiometry N (cryo-EM structure) | binding result [1]
1 | B1 | 5 | 
2 | B2 | 5 | 
3 | B3 |  | binds
